The values that follow come from publication PMC9182532, “The RHIM of the Immune Adaptor Protein TRIF Forms Hybrid Amyloids with Other Necroptosis-Associated Proteins” (Molecules, 2022).

To fix the notation:
B1: mCherry-RIPK1_(497–583) (domain or fragment, human, UniProt Q13546 497-583, looked up)
chain: MPSLHNIPVPETNYLGNTPTMPFSSLPPTDESIKYTIYNSTGIQIGAYNYMEIGGTSSSLLDSTNTNFKEEPAAKYQAIFDNTTSLT
notes: also called RIPK1 RHIM construct; source: E. coli BL21(DE3), solubilised in 8 M urea, purified (Ni-NTA); not shown: mCherry, N-terminal, kept
B2: Ub-TRIF_(601–712) (domain or fragment, human, UniProt Q8IUC6 601-712, looked up)
chain: APYGARMPFGGQVPLGAPPPFPTWPGCPQPPPLHAWQAGTPPPPSPQPAAFPQSLPFPQSPAFPTASPAPPQSPGLQPLIIHHAQMVQLGLNNHMWNQRGSQAPEDKTQEAE
notes: Kept as monomer in 8 M urea; assembly is started by removing the denaturant; also called wildtype TRIF RHIM; source: E. coli BL21(DE3), solubilised in 8 M urea, purified (Ni-NTA); not shown: ubiquitin, N-terminal, kept
B3: YPet-TRIF_(601–712) (domain or fragment, human, UniProt Q8IUC6 601-712, looked up)
chain: B2 chain
notes: source: E. coli BL21(DE3), solubilised in 8 M urea, purified (Ni-NTA); not shown: YPet, N-terminal, kept

Series [1] deals with the molecule itself. In words: SDS-agarose gel electrophoresis (SDS-AGE); 5 µM alone or equimolar mixtures, kept in 8 M urea (monomer control) or dialysed overnight against 100 mM NaH2PO4, 20 mM Tris, 0.5 mM DTT, pH 8.0, with or without 2% SDS for 10 min; 1% agarose gel with 0.1% SDS; YPet and mCherry fluorescence imaged and overlaid.
The target in series [2] is B3. The description is as above. The conditions noted are these: both partners purified.
Series [3] concerns the molecule itself. In words: thioflavin T fluorescence + Congo red absorbance; self-assembly started by dilution from urea into 25 mM NaH2PO4, 150 mM NaCl, pH 7.4, 40 µM ThT, 0.5 mM DTT, 37 °C, 2.5 µM (0.625–5 µM in the concentration series); Congo red on samples dialysed overnight at 0.3 mg/mL.

Consider B1, for which the binding result in series [1] and in series [2] was “binds” each time.

Turning to B2, the binding result in series [3] is “binds”.

In the case of B3, in series [1], the binding result is on record as “binds”.
